Source: patent US20190134153A1, “IMMUNOMODULATORY EFFECT OF INHALED KINASE INHIBITOR PEPTIDES IN LUNG” (MOERAE MATRIX, INC., priority 2017, published 2019)

Assays:
Assay in all cases: Kinase Profiling Assay
Format in all cases: biochemical
Details in all cases: 100 μM
BrSK2(h) = biological target: T1, BrSK2(h) (Homo sapiens, UniProt Q8IWQ3)
T1 sequence (Q8IWQ3 1-736): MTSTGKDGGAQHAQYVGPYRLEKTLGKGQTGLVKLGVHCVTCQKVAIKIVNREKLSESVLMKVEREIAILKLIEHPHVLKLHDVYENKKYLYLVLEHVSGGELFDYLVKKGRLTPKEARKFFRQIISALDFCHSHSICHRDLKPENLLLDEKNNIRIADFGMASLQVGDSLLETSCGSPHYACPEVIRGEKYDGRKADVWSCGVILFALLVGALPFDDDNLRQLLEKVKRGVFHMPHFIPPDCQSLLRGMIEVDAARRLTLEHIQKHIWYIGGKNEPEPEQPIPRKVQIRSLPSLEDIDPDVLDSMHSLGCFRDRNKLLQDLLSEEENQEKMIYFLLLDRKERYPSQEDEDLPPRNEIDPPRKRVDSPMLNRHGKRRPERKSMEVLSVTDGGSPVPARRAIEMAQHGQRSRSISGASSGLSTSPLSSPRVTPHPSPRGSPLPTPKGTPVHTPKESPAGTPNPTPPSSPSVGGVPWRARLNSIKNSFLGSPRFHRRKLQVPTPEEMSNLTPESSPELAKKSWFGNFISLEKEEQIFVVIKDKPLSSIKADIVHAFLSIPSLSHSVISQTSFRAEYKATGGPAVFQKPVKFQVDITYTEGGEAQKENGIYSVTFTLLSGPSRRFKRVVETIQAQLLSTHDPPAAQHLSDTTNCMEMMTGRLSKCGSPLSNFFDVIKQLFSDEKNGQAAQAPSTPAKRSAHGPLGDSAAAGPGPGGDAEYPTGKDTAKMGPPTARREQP

DDR2(h) = biological target: T2, DDR2(h) (Homo sapiens, UniProt Q16832)
T2 sequence (Q16832 22-855): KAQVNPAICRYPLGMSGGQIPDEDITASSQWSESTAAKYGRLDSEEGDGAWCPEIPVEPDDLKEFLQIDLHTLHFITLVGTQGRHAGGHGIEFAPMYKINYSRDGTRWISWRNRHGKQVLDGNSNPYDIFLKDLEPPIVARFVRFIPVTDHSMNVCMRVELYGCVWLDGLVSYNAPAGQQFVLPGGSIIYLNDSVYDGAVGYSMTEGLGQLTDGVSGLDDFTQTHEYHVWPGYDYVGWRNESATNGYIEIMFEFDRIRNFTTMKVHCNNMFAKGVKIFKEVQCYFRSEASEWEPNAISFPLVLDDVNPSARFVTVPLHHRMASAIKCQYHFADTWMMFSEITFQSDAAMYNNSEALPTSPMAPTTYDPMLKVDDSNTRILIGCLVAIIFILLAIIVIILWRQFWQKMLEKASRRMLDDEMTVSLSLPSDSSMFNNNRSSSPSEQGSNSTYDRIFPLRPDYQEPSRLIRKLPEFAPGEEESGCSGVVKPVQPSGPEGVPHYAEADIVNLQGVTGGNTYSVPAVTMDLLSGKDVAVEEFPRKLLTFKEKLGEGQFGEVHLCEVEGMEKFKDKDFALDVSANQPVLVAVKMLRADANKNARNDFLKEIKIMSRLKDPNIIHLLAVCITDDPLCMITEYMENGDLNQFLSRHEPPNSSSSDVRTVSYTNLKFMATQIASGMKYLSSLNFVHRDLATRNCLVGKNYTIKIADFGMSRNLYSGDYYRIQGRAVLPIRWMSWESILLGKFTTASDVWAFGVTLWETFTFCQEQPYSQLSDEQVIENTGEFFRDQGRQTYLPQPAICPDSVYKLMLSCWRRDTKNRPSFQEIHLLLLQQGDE

EGFR(L861Q)(h) = EGFR(L861Q)(h) (Homo sapiens, UniProt P00533, L861Q)
ErbB4(h) = ErbB4(h) (Homo sapiens, UniProt Q15303)
Chain of ErbB4(h) (Q15303 26-1308): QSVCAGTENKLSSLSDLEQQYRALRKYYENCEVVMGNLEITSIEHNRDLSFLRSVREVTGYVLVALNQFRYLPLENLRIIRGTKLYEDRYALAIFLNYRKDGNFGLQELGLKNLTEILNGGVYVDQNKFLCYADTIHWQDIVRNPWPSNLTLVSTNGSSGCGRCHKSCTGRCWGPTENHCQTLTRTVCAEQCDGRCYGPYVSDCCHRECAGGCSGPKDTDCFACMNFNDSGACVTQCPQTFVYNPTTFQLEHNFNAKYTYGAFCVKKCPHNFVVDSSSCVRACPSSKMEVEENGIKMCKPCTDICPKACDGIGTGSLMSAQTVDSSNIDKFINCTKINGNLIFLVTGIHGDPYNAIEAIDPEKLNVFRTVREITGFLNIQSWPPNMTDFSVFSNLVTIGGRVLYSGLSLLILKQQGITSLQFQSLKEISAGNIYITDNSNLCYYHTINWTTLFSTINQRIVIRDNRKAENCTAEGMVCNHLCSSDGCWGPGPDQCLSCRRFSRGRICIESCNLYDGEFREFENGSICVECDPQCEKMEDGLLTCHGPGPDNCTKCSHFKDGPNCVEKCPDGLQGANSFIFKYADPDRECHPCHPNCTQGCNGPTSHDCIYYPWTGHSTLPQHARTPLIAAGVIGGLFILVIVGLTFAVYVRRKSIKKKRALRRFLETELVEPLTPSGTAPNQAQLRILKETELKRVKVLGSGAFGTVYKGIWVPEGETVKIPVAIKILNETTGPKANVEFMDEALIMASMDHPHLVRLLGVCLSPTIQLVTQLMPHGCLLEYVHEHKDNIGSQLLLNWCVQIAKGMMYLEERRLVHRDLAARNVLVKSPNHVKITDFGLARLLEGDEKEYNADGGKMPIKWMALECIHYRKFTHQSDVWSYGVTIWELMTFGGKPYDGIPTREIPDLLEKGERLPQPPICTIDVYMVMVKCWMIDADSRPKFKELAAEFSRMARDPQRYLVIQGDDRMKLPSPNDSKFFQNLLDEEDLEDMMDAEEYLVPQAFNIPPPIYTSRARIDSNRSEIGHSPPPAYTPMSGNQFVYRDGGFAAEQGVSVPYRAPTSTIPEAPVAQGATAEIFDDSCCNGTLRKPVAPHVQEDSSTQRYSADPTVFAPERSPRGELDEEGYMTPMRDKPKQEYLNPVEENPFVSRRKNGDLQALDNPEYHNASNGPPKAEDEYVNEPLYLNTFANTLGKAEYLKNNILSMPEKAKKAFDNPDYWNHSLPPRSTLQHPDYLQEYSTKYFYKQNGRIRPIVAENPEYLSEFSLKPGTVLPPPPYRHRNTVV

Flt1(h) = Flt1(h) (Homo sapiens, UniProt P17948)
Chain of Flt1(h) (P17948 27-1338): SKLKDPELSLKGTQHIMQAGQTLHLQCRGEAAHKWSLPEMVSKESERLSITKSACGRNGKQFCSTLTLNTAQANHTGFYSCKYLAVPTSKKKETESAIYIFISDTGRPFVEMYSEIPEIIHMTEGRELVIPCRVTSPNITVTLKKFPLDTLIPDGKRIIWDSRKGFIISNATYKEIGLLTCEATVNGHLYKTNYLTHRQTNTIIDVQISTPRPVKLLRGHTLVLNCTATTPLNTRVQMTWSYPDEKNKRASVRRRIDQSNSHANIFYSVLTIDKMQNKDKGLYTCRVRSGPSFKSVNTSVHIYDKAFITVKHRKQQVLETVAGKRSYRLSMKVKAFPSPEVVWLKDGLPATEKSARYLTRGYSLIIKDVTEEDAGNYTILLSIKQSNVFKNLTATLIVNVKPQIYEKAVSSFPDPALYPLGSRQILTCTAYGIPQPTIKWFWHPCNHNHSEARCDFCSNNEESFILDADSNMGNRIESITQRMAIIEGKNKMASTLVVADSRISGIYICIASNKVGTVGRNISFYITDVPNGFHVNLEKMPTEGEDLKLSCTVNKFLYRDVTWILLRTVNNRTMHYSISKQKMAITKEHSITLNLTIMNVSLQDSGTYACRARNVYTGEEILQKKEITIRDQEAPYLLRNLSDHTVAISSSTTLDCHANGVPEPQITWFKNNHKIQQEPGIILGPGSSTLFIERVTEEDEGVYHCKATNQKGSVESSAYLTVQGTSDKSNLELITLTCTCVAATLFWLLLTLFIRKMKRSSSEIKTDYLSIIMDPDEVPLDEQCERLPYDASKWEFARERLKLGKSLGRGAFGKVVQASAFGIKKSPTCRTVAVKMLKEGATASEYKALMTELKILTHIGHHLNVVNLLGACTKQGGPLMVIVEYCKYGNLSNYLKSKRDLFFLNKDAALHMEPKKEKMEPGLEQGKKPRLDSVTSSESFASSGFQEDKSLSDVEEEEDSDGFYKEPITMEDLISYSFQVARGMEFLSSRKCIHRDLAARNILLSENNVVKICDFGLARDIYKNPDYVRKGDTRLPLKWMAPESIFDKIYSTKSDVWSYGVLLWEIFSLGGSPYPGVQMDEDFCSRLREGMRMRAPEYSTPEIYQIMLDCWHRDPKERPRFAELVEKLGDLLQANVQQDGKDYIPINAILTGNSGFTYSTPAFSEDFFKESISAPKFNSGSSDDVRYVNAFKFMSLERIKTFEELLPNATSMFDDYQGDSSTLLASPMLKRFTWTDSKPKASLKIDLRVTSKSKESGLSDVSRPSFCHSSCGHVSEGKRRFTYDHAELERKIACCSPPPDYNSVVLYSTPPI

Flt3(h) = Flt3(h) (Homo sapiens, UniProt P36888)
IGF-1R(h), activated = IGF-1R(h), activated (Homo sapiens, UniProt P08069)
Lck(h) activated = Lck(h) activated (Homo sapiens, UniProt P06239)
Lyn(h) = Lyn(h) (Homo sapiens, UniProt P07948)
Chain of Lyn(h) (P07948 whole entry): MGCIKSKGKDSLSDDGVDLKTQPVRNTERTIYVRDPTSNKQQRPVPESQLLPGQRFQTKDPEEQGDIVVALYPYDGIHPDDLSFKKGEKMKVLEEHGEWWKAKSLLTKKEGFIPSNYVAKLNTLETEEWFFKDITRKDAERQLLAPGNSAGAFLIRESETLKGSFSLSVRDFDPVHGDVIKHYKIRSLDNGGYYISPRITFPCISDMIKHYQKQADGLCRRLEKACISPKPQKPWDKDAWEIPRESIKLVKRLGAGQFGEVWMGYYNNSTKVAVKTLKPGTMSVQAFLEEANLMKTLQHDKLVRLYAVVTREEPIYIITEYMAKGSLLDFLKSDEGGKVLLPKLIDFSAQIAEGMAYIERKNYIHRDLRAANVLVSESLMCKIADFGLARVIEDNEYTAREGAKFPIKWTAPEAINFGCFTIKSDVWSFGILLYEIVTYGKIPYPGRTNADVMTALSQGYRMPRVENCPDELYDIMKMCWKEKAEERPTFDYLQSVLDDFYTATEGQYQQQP

NEK7(h) = NEK7(h) (Homo sapiens, UniProt Q8TDX7)
p70S6K(h) = p70S6K(h) (Homo sapiens, UniProt P23443)
Chain of p70S6K(h) (P23443 whole entry): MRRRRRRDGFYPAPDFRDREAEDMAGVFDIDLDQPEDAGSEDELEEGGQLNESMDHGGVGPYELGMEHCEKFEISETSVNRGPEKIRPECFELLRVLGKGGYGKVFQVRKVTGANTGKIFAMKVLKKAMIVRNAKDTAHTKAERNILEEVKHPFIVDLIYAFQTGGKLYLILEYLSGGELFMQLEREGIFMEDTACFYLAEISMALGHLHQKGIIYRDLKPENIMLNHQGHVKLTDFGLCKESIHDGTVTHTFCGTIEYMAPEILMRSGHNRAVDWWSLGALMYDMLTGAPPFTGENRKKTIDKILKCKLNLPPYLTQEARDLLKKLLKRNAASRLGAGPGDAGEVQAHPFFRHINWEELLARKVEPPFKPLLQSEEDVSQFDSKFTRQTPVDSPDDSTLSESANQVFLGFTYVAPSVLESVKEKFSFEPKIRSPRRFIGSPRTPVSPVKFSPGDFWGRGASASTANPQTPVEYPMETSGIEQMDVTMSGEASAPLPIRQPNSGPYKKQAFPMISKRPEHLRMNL

PDGFRβ(h) = PDGFRβ(h) (Homo sapiens, UniProt P09619)
Pim-1(h) = Pim-1(h) (Homo sapiens, UniProt P11309)
PKBγ(h) = PKBγ(h) (Homo sapiens, UniProt Q9Y243)
Chain of PKBγ(h) (Q9Y243 whole entry): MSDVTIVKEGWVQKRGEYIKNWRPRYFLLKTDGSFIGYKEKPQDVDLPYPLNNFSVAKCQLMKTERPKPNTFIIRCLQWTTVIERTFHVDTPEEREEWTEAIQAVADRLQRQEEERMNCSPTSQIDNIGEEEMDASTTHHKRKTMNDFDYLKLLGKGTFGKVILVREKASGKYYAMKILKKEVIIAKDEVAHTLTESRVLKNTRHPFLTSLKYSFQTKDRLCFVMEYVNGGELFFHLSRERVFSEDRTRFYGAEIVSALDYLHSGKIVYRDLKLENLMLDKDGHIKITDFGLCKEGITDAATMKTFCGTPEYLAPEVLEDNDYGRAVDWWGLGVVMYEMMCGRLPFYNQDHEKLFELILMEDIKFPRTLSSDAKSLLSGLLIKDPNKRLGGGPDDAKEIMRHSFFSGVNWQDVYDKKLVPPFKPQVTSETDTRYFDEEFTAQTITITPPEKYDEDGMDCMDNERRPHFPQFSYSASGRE

Yes(h) = Yes(h) (Homo sapiens, UniProt P07947)
TLK2(h) = TLK2(h) (Homo sapiens, UniProt Q86UE8)
Chain of TLK2(h) (Q86UE8 whole entry): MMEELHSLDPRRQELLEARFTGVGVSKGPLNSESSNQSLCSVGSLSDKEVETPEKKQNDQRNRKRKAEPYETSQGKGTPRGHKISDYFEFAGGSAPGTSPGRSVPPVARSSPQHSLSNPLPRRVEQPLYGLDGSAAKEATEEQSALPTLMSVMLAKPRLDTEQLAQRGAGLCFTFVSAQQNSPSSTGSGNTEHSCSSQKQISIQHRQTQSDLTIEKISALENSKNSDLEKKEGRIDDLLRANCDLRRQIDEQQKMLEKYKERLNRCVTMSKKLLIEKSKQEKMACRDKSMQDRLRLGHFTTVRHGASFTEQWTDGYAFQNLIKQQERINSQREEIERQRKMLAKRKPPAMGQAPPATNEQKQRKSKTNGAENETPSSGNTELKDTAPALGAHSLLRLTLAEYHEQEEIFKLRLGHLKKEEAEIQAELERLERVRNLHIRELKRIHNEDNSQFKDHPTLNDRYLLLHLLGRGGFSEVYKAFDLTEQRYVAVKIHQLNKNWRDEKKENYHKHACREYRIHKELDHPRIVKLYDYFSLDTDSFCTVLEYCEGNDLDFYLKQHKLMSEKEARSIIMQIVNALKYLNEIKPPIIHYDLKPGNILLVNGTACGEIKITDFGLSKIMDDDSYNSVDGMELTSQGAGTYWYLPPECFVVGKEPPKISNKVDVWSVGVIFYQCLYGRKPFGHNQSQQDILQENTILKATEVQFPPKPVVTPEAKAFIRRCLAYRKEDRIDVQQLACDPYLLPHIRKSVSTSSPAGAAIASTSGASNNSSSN

Row | Sequence | % activity (BrSK2(h)) | % activity (DDR2(h)) | % activity (EGFR(L861Q)(h)) | % activity (ErbB4(h)) | % activity (Flt1(h)) | % activity (Flt3(h)) | % activity (IGF-1R(h), activated) | % activity (Lck(h) activated) | % activity (Lyn(h)) | % activity (NEK7(h)) | % activity (p70S6K(h)) | % activity (PDGFRβ(h)) | % activity (Pim-1(h)) | % activity (PKBγ(h)) | % activity (Yes(h)) | % activity (TLK2(h))
1 | FAKLAARLYRKALARQLGVAA [MMI-0300] | 83% | 94% | 25% | 40% | 69% | 84% | 80% | 243% | 69% | 84% | 35% | 81% | 8% | 20% | 67% | 
2 | KAFAKLAARLYRKALARQLGVAA [MMI-0400] | 86% | 95% | 22% | 0% | 48% | 18% | 77% | 216% | 3% | 87% | 33% | 53% | 7% | 41% | 14% | 151%
3 | HRRIKAWLKKIKALARQLGVAA [MMI-0500] | 84% | 79% | 15% | 2% | 27% | 17% | 45% | 76% | 31% | 89% | 3% | 40% | 0% | 20% |  | 133%
4 | YARAAARQARAKALNRQLGVA [MMI-0200] |  |  | 74% | 82% | 96% | 99% | 94% | 90% | 98% | 96% | 84% | 137% | 18% |  | 93% | 129%
